B1: human MAb PhtD3 (antibody, V domains shown)
VH: QVQLVQSGPDVKKPGSSVKVSCKASGAAFESFAFAWVRQAPGQGFEWMGRIIPILETRDYAEKFQGRMTMTTDESTATAYMELNSLRFEDTAVYFCARDGHIMRTTLSDAALDVWGQGTTVIVSS
VL: DIVMTQSPVTLSLSPGERATLSCRASQSLTDNYLAWYQQKPGQAPRLLIYAASTRATGIPDRISGSGSGTDFTLTISRVEPEDFAMFYCQQYQNSPFTFGGGTTVEIK
B2: human MAb PhtD7 (antibody, V domains shown)
VH: EVQLVQSGAEVKKPGASVKVSCKASGDIFSDSYIHWVRQAPGQGPEWMGWVSPNTGATHYAQKLQGRVTMTSDTSISTAYLELTRLASDDTAVYYCARVLRGSYDFRGNYPHDFDYWGQGTLVTVSS
VL: QLVLTQPPSASASLGASVTLTCTLSRGHNNYPIAWLQKQTDKGPRYVMRLNSDGSHHKGDGIPDRFSGSSSGAERYLSISSLQPEDEAEYYCQTWDTGLQGVFGGGTKLFVL

Tests used:
[1] = target: PhtD of pneumococcal strain TCH8431 (serotype 19A), endogenous (Streptococcus pneumoniae TCH8431 …, UniProt A0A0H2UPR0, strain); test: Western blot
[2] = target: PhtD of pneumococcal strain TIGR4 (serotype 4), endogenous (Streptococcus pneumoniae TIGR4 …, UniProt A0A0H2UPR0); test: Western blot
[3] = target: MBP-PhtD fragment, amino acids 341 to 838 (Streptococcus pneumoniae TCH8431 …, UniProt A0A0H2UPR0, strain); test: ELISA

| Binder | binding result [1] | binding result [2] | binding result [3] |
| --- | --- | --- | --- |
| B1 | binds | binds | – |
| B2 | – | – | binds |

From article PMC8091081 (Infection and Immunity, 2021)
